Reference: PMC8660638

Biological target: RNA polymerase I (13-subunit complex) (Homo sapiens (HEK293T), UniProt O95602;Q9H9Y6;O15160;P0DPB6;Q9P1U0;Q3B726;Q9GZS1;O15446;P19388;P61218;P52434;P53 …)
Assay: cryo-EM structure; open complex, inactive state, 3.3 A; RRN3 in sample but not bound in this class; downstream duplex traced, bubble not stably bound at active site; EM buffer: 15 mM HEPES pH 7.5, 80 mM (NH4)2SO4, 5 mM MgCl2, 10 mM DTT; scaffold annealed in 20 mM HEPES pH 7.5, 12 mM MgCl2, 100 mM NaCl, 10 mM DTT (1x, from printed 2x); complex incubation temperature not given
Settings: protein: native; copies: 1;1;1;1;1;1;1;1;1;1;1;1;1; 43-bp duplex with 12-nt mismatch bubble, blunt

B1: Pol I OC scaffold (template/nontemplate DNA, no RNA) (dsDNA)
DNA 1: GTACTGAATTAGACAATGCTCTGTGGCTCTAGTACCATGAGCG
DNA 2: CGCTCATGGTACTAGGCTTCGGAGAAGTTGTCTAATTCAGTAC
binding result: binds
